Assay results taken from patent publication US20130195875A1.

What was measured:
[1] = molecular target: human recombinant adrenomedullin receptor (CRLR+RAMP3) (human)
[2] = molecular target: ADM (human or mouse, not stated for this row); experiment: cell-based or functional assay

Substance | EC50 (read off the curve) [1] | Maximal inhibition of ADM bioactivity (ADM-Bioassay) (%) [2]
human adrenomedullin (hADM 1-52) (peptide) | 1 nM | –
Non specific mouse IgG (antibody) | – | 0%
